Results published in article PMC4729596.

Target: VC-Vam7 (yeast) (UniProt P32912)
Test: split reporter

Sequence of UniProt P32912 (P32912 whole entry): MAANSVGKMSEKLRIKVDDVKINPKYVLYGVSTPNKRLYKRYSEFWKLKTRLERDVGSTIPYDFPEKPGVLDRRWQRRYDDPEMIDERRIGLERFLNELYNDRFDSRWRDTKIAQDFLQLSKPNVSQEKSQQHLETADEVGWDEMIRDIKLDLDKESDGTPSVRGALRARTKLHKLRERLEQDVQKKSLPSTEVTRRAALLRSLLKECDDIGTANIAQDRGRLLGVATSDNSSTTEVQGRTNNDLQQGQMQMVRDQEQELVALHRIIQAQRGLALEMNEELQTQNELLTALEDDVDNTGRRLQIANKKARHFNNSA

**Q.** For “VN-Atg11 (from UniProt Q12527 1-1178) (natural protein)”, which percent of cells with a vYFP signal is on record?
**A.** The percent of cells with a vYFP signal was > 90 % of cells.
